# Results: the supplement of paper PMC9170038
# Test system: MS2 coat protein
# Assay: apparent KD of MS2 coat protein; designed switch direction (-1 OFF switch, 1 ON switch): -1; higher = weaker reporter binding
# Outline: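 Transcription of designed RNA switches on Illumina chips was done by stalled E. coli RNA polymerase. SNAP-549-labelled MS2 coat protein was then titrated in doubling steps from 0.7 or 1.5 nM to 3 µM, with steps of 0.8–1.5 h at the lowest and 10–20 min at the highest concentration. The per-design median over clusters of curve-fitted normalised fluorescence is reported as apparent KD.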
# [1] = input ligand: microRNA oligo, concentration not stated
# [2] = Eterna round: R95, input ligand: microRNA oligo, concentration not stated
# [3] = Eterna round: R95, input ligand: FMN 200 uM
# [4] = Eterna round: R95, input ligand: none
sequence,measurement,setting,value
"AUCAGCUCGUCAGGAUAUGCACAUGAGGAUCACCCAUGUAAGAUCAAGCUGCUUCGGCAGCAAGUGCAGAAGGGACGAGCUGAU [ENG2/9-B2] (Eterna round: R96, puzzle: Exclusion NG 2)",apparent KD of MS2 coat protein,input ligand: FMN 200 uM,151 nM
same,apparent KD of MS2 coat protein,[1],177 nM
same,apparent KD of MS2 coat protein,input ligand: none,229 nM
"AUCAGCUCGUGAGGAUAUACAUGAGGAUCACCCAUGUGGUCAAUAGCAGCUUCGGCUGCAUACAUGUAGAAGGCACGAGCUGAU [ENG2/7-A2] (Eterna round: R96, puzzle: Exclusion NG 2)",apparent KD of MS2 coat protein,input ligand: FMN 200 uM,36.6 nM
same,apparent KD of MS2 coat protein,[1],58.5 nM
same,apparent KD of MS2 coat protein,input ligand: none,30.1 nM
"AUCAGCUCGUGAGGAUAUAUAUACAUGAGGAUCACCCAUGUAAGAUCAGGCUUCGGCCAAUGUAUAUAGAAGGCACGAGCUGAU [ENG2/11-A3] (Eterna round: R96, puzzle: Exclusion NG 2)",apparent KD of MS2 coat protein,input ligand: FMN 200 uM,403 nM
same,apparent KD of MS2 coat protein,[1],535 nM
same,apparent KD of MS2 coat protein,input ligand: none,808 nM
"AUCGUGCAGCUUUGCUGUACGAGUACAUGAGGAUCACCCAUGUAGGAUAUGGUACGCUUUGCGUGCUAGAAGGAUAUGUGUUAG [EX ENG3 1.43] (Eterna round: R96, puzzle: Exclusion NG 3)",apparent KD of MS2 coat protein,input ligand: FMN 200 uM,46.6 nM
same,apparent KD of MS2 coat protein,[1],34.8 nM
same,apparent KD of MS2 coat protein,input ligand: none,44.2 nM
AUCUAGUCAGGAUAUACGAACCGAUGAAUCGGACGGAACGAACAUGAGGAUCACCCAUGUAGAAGGGACACUCA [Candy Rainbow 2] (puzzle: Exclusion 2),apparent KD of MS2 coat protein,[2],142 nM
AUCUCCUCUGUCAGGAUAUAUAAACUGUUGCAGUGGUAGAAGGGACAUGAGGAUCACCCAUGUAAUAUAAAUAA [Bivege] (puzzle: Brourd's mod of Exclusion 4),apparent KD of MS2 coat protein,[2],26.6 nM
"AUGCCCUGAGGAUAUCUCAUCCCGCACAUGAGGAUCACCCAUGUUCUCCUCCGGGCUCCGAGAGAAGGCAGGCCUA [Armus7] (Eterna round: R97, puzzle: Exclusion 5)",apparent KD of MS2 coat protein,input ligand: FMN 200 uM,80.1 nM
same,apparent KD of MS2 coat protein,input ligand: none,53.5 nM
"AUGCGCAAGCUUUUUGUUCACAUGAGGAUCACCCAUGUUAUGGUCGCCUGUGAGGAGCGAUAGCGUCUCCGACCUGA [Eternabot (Original) Solution 31] (Eterna round: R97, puzzle: Sensor, turn-off variant 1)",apparent KD of MS2 coat protein,input ligand: FMN 200 uM,35.7 nM
same,apparent KD of MS2 coat protein,input ligand: none,36.5 nM
AUGGACGCAGGAUAUACAUGAGGAUCACCCAUGUGAGGUAGGUAAGUAGGAAGUGAAGGUAGAAGGGCGAGAGA [JR_Exclu3_Sub096] (puzzle: Exclusion 3),apparent KD of MS2 coat protein,[2],59.4 nM
"AUGGGUACUUUCGGAGCGACAUGAGGAUCACCCAUGUAUGUUGAGGAUAUCCACUGCUAAGGACGGGAGAAGGCAGUGUACUGU [Ex NG3 #83] (Eterna round: R96, puzzle: Exclusion NG 3)",apparent KD of MS2 coat protein,input ligand: FMN 200 uM,26.1 nM
same,apparent KD of MS2 coat protein,[1],16 nM
same,apparent KD of MS2 coat protein,input ligand: none,26.4 nM
"AUGUGACAUGAGGAUCACCCAUGUCAGGAUAUUUCCAAAAUAAAAUAAAACCGCGUGGAAAGAAGGGACGUGGU [EX1 A.8] (Eterna round: R97, puzzle: Exclusion 1)",apparent KD of MS2 coat protein,input ligand: FMN 200 uM,23.4 nM
same,apparent KD of MS2 coat protein,input ligand: none,21.7 nM
"AUGUUGCGAGGAUAUAUAAGGAGGUUAAAAUUUAUUAUGGAACAUGAGGAUCACCCAUGUAGAAGGUGCAUAAC [JR_Ex2_Sub038] (Eterna round: R97, puzzle: Exclusion 2)",apparent KD of MS2 coat protein,input ligand: FMN 200 uM,49.6 nM
same,apparent KD of MS2 coat protein,input ligand: none,55.7 nM
"AUUAAACAUGUAGGAUAUGCGUGGCAAAGCUAUGCAGAAGGACAUGAGGAUCACCCAUGUAAAAGCGUCUGCGUACAGAUGCAA [Mat - Exclusion NG 1 - Mod of JL - D86] (Eterna round: R96, puzzle: Exclusion NG 1)",apparent KD of MS2 coat protein,input ligand: FMN 200 uM,314 nM
same,apparent KD of MS2 coat protein,[1],30.7 nM
same,apparent KD of MS2 coat protein,input ligand: none,41.3 nM
"AUUAGCGUAGGAUAUUAGUACAUGUACAUGAGGAUCACCCAUGUGAGGUGAGUCUUAGAUUAAGAAGGGCGAAGAA [EX5 #34] (Eterna round: R97, puzzle: Exclusion 5)",apparent KD of MS2 coat protein,input ligand: FMN 200 uM,309 nM
same,apparent KD of MS2 coat protein,input ligand: none,704 nM
"AUUAUGUUAGGAUAUGCUUAUGGUGGAUAGUCCAAUGUGGUGCAGAAGGGACAUGAGGAUCACCCAUGUACUGA [EX4 #29] (Eterna round: R97, puzzle: Exclusion 4)",apparent KD of MS2 coat protein,input ligand: FMN 200 uM,70.5 nM
same,apparent KD of MS2 coat protein,input ligand: none,58.6 nM
"AUUGUUUAUGUAGGAUAUGCCUGGCGUGCCUUUGCAGAAGGACAUGAGGAUCACCCAUGUAUUGCGGUCUGCGUUCAGAUCGCG [salish99_ExNG1_r4_034] (Eterna round: R96, puzzle: Exclusion NG 1)",apparent KD of MS2 coat protein,input ligand: FMN 200 uM,46.9 nM
same,apparent KD of MS2 coat protein,[1],22.5 nM
same,apparent KD of MS2 coat protein,input ligand: none,27.4 nM
"AUUUACGGAGGAUAUACUUGAGGAUCACCCAAGUGGAGUCCCGUUUGGGCGGUAAAUAGUAGAAGGCCGUCCUA [jl-ex3-4.46 ViennaUCT mod] (Eterna round: R97, puzzle: Exclusion 3)",apparent KD of MS2 coat protein,input ligand: FMN 200 uM,27.7 nM
same,apparent KD of MS2 coat protein,input ligand: none,16.2 nM
"AUUUAUAAUGUAGGAUAUGGAUUCGAAACGUAUCCAGAAGGACAUGAGGAUCACCCAUGUACAUGAGGAUCACCCAAUUUAUUA [Fiskers ExNg1 - 10] (Eterna round: R96, puzzle: Exclusion NG 1)",apparent KD of MS2 coat protein,input ligand: FMN 200 uM,98 nM
same,apparent KD of MS2 coat protein,[1],46.7 nM
same,apparent KD of MS2 coat protein,input ligand: none,59.3 nM
AUUUUGUCAGGAUAUGACUAGUAGGACGAGAGUGCUACUACUUAGAAGGGACAUGAGGAUCACCCAUGUAUUCC [Bring Us a Shrubbery-09] (puzzle: Exclusion 4),apparent KD of MS2 coat protein,[2],14.1 nM
CAAAAGCGAGGAUAUACAUGAGGAUCACCCAUGUGGCAGCCAUGUAGGAGUGACGUCGGUAGAAGGCGCACCCU [Soaran] (puzzle: Exclusion 3),apparent KD of MS2 coat protein,[2],76.2 nM
CAAAAGGUAGGAUAUACGAAAAAAAAGGGUAGAAAAAAAACACAUGAGGAUCACCCAUGUAGAAGGACCAAAAA [salish99_ex2_r3_055] (puzzle: Exclusion 2),apparent KD of MS2 coat protein,[3],67.6 nM
same,apparent KD of MS2 coat protein,[2],22 nM
same,apparent KD of MS2 coat protein,[4],24.5 nM
CAAAAGGUAGGAUAUACGAAAAAAAAGGGUAGAAAAAAAACACAUGAGGAUCACCCAUGUAGAAGGACCAAAAC [salish99_ex2_r3_042] (puzzle: Exclusion 2),apparent KD of MS2 coat protein,[3],95.7 nM
same,apparent KD of MS2 coat protein,[2],22.6 nM
same,apparent KD of MS2 coat protein,[4],21.6 nM
"CAAACUUCGCGAGGAUAUGGGAUCAUAUAGAUGCCAGAAGGCGCGACAUGAGGAUCACCCAUGUGUUUUGCCCUGUGAUUCCAG [Eternabot solution 12] (Eterna round: R96, puzzle: Exclusion NG 1)",apparent KD of MS2 coat protein,input ligand: FMN 200 uM,22.2 nM
same,apparent KD of MS2 coat protein,[1],16.6 nM
same,apparent KD of MS2 coat protein,input ligand: none,21.5 nM
"CACAAGCUUUUUUGAUGCAUUUUAGUUGGUUUCCUUUUUACAUGAGGAUCACCCAUGUUUAUGAAGCUCGAUCUUUU [JR_SV3TOV2_Sub079] (puzzle: Sensor v3, turn-off variant 2)",apparent KD of MS2 coat protein,[3],54.3 nM
same,apparent KD of MS2 coat protein,[2],49.2 nM
same,apparent KD of MS2 coat protein,[4],60.1 nM
"CACCCUGAUGACAAAUUACAUGAGGAUCACCCAUGUGCCUCGCAGGAUAUCCCAGCACGUCGCAAGGAGAAGGGCGACGCGCCA [Ralerira] (Eterna round: R96, puzzle: Exclusion NG 3)",apparent KD of MS2 coat protein,input ligand: FMN 200 uM,31.5 nM
same,apparent KD of MS2 coat protein,[1],23.9 nM
same,apparent KD of MS2 coat protein,input ligand: none,41.3 nM
"CACCGUUACAGAGGAUAUGACACAUGAGGAUCACCCAUGUAAUAAAUGAGAAUUUCGAAUGUAACUCAGAAGGCUGGAAUCGGC [Ostricism 77 - Jieux - Exclusion NG 2] (Eterna round: R96, puzzle: Exclusion NG 2)",apparent KD of MS2 coat protein,[1],22.1 nM
"CACCGUUACAGAGGAUAUGACACAUGAGGAUCACCCAUGUAAUAAAUGAGAAUUUCGAAUGUACCUCAGAAGGCUGGAACCGGC [Ostricism 78 - Jieux - Exclusion NG 2] (Eterna round: R96, puzzle: Exclusion NG 2)",apparent KD of MS2 coat protein,input ligand: FMN 200 uM,61.2 nM
same,apparent KD of MS2 coat protein,[1],31.5 nM
same,apparent KD of MS2 coat protein,input ligand: none,38.7 nM
"CACCUGAAGACAGGAUAUCAUACAUGAGGAUCACCCAUGUAAUAAAUGAGAAUUUCGAAUGUAAUUGAGAAGGGUCGAUAAGGC [Ostricism 91 - Jieux - Exclusion NG 2] (Eterna round: R96, puzzle: Exclusion NG 2)",apparent KD of MS2 coat protein,input ligand: FMN 200 uM,78.9 nM
same,apparent KD of MS2 coat protein,[1],30.6 nM
same,apparent KD of MS2 coat protein,input ligand: none,30.6 nM
"CACGUGUCAGGAUAUAGGACAGAUAUAGUCACAAUCUCUGCCUAGAAGGGACAUGAGGAUCACCCAUGUCUAUA [EX4 C.17] (Eterna round: R97, puzzle: Exclusion 4)",apparent KD of MS2 coat protein,input ligand: FMN 200 uM,27.6 nM
same,apparent KD of MS2 coat protein,input ligand: none,20.5 nM
"CAGACACAUGAGGAUCACCCAUGUAAGGAUAUGAACUGUGGUAACGGAGCCAGCGGGUUCAGAAGGUGCGUGAC [Eternabot (L1) Solution 19] (Eterna round: R97, puzzle: Exclusion 1)",apparent KD of MS2 coat protein,input ligand: FMN 200 uM,77.9 nM
same,apparent KD of MS2 coat protein,input ligand: none,91.4 nM
"CAGCUGAAAGUCAGGAUAUCUAGAGCGAUAGCUCUAGAGAAGGGACAUGAGGAUCACCCAUGUGGUCACAGCUG [BmEx4/5-A4] (Eterna round: R97, puzzle: Brourd's mod of Exclusion 4)",apparent KD of MS2 coat protein,input ligand: FMN 200 uM,169 nM
same,apparent KD of MS2 coat protein,input ligand: none,648 nM
"CAGCUGAAUGUCAGGAUAUCUAGAGCGAUAGCUCUAGAGAAGGGACAUGAGGAUCACCCAUGUCACUCCAGCUG [BmEx4/3-B4] (Eterna round: R97, puzzle: Brourd's mod of Exclusion 4)",apparent KD of MS2 coat protein,input ligand: FMN 200 uM,29.5 nM
same,apparent KD of MS2 coat protein,input ligand: none,18.2 nM
"CAGCUGUGAGGAUAUACAUGAGGAUCACCCAUGUUAAGGAAGUGGUGUAUAUUGUAGUGUAGAAGGCACUUGUC [JR_Ex3_Sub026] (Eterna round: R97, puzzle: Exclusion 3)",apparent KD of MS2 coat protein,input ligand: FMN 200 uM,234 nM
same,apparent KD of MS2 coat protein,input ligand: none,123 nM
"CAGGACAGAGGAUAUACAUAGAUACAGAUUCAUGUAGAACUACAUGAGGAUCACCCAUGUAGAAGGCUGACCUG [Fiskers Ex 2 - 4] (Eterna round: R96, puzzle: Exclusion 2)",apparent KD of MS2 coat protein,input ligand: FMN 200 uM,311 nM
same,apparent KD of MS2 coat protein,[1],23.5 nM
same,apparent KD of MS2 coat protein,input ligand: none,31.5 nM
